Assay results: the RNAGym collection of RNA variant scans (doi:10.1073/pnas.2313332121)
Fewer inactive variants are shown than the library holds.

B1: TPR 5TU (parent)
chain: GGAUCUUCUCGAUCUAACAAAAAAGACAAAUCUGCCACAAAGCUUGAGAGCAUCUUCGGAUGCAGAGGCGGCAGCCUUCGGUGGCGCGAUAGCGCCAACGUUCUCAACUAUGACACGCAAAACGCGUGCUCCGUUGAAUGGAGUUUAUCAUG

Variants of: B1
Assay: polymerase ribozyme fitness, log enrichment relative to wild type (log ratio); higher = more active; in vitro selection for triplet polymerase activity
Procedure, shortened: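 For each subunit of a heterodimeric triplet polymerase ribozyme, a mutant library was built by PCR and transcribed, then taken through a single in vitro selection round in triplicate. Selection involved annealing to a biotinylated primer, the partner subunit and triplets, incubation frozen at −7 °C, gel excision of extended constructs, capture on streptavidin beads and RT-PCR. Genotypes were retained after Illumina sequencing of inputs and outputs only with ≥10 input reads and ≥1 read in each output. Fitness is defined as the logarithm of a genotype's enrichment relative to wild-type enrichment, using inverse-variance-weighted averages across replicates, with the logarithm taken to base 2.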

Row | Variant | polymerase ribozyme fitness (log ratio)
1 | GGAUCUUCUCGAUCUAACAAAAAAGACAAAUCUGCCACAAAGCUUGAGAGCAUCUUCGGAUGCAGAGGCGGCAGCCUUCGGUGGGGCGAUAGCGCCAACGUUCUCAACUAUGACACGCAAAACGCGUGCUCCGUUGAAUGUAGUUUAUCAUG [C85G G141U] | -0.649
2 | GGAUCUUCUCGAUCUAACAAAAAAGACAAAUCUGCCACAAAGUUUGAGAACAUCUUCGGAUGCAGAGGCGGCAGCCUUCCGUGGCGCGAUAGCGACAACGUUCUCAACUAUGACACGCAAUACGCGUGCUCCGUUGAAUGGAGUUUAUCCUG [C43U G50A G80C C95A A121U A150C] | ≤ -4.2
3 | GGACCUUAUCGAUCUAACAAAAAAGACAAAUCUGCCACAAAGCUUGAGAGCAUCUUCGAAUGCAGAGGCGGCAGCCUUCGGUGGCGCGAUAGCGCCAACGUUCUCAACUAUGACACGCAAAACGCGUGCUCCGUUGAAUGGAGUUUAUCAUG [U4C C8A G59A] | -4.18
4 | GGAUCUUCUCGAUCUAACAAAAAAGACCAAUCUGCCGCAAAGCUUGGGAGCAUCUUCGGAUGCAGCGGCGGCAGCCUUCGGUGGCACGAUAGCGCCAACGUUCUCAUCUAUGACACGCAAAACGCGUGCUCCGUCGAAUGGAGUUUAUCAUG [A28C A37G A47G A66C G86A A107U U135C] | ≤ -4.2
5 | GGAUCUUCUCGAUCUAACAAAAAAGACAAAUAUGCCGCAAAGCUUGAGAGCAUCUUCGGAGGCAGAGGCGGCAGCCUUCGGUGGCGCGAUAGCUCCAACGUUCUCAACUAUGACACGCAAAACUCGUGCUCCGUUGAAUGGAGUUUAUCAUG [C32A A37G U61G G94U G124U] | ≤ -4.2
6 | GGAUCUUCUCGAUCUAACAAAAAAGACAAAUCUGCCACAAAGCUUGAGAGCAUCUUCGGAUGCAGAGGCGGCAGCCUUCGGUGGCGGGAUAGUGCCAACGUUCUCAACUAUGACACGCAAAACCCGUGCUCCGUUGAAUGGAGUUUAUCAUG [C87G C93U G124C] | ≤ -4.2
7 | GGAUCUUCUCAAUCUAACACUAAAGACAAAUCUGCCACAAAGCUUGAGAGCGUCCUCGGAUGCAGAGGCGGCAGCCUUCGGUGGCGCGAUAGCCCCAACGUUCUCAACUAUGACAUGCAAAACGCGUGCUCCGUUGAAUGGAGUUUAUCAUG [G11A A20C A21U A52G U55C G94C C116U] | -4.05
8 | GGAUCUUCUCGAUCUAACAAAAAAGACAAAUCUGCCACAAAGCUUGAGAGCAUCUUCGGAUGCAGAGGCGGCAGCCUUCGGUGGCGCGAUAGCGCCAACGGUCUCAACUAUGACACGCAAAACGCUUGCUCCGUUGAAUGGAGUUUAUCAUG [U101G G126U] | 0.138
9 | GGAUCUUCUCGAUCUAACAAAAAAGACAAAUCUGCUACAAAGCUUGAGAGCCUCGUCCGAUGCAGAGGCGGCAGCCUUCGGUGGCGCGAUAGCGCCAACGUUCUCAACUAUGACACGCAAAACGAGUGCUGCGUUGAAUGGAGUUUAUCAUG [C36U A52C U55G G58C C125A C131G] | ≤ -4.2
10 | GGAUCUUCUCGAUCUAACAAAAAAGACAAAUCUGCCACAAAGCUUGAGAGCAUCUUCGGAUGCAGAGGCGGCAGCCUUCGGUGGCGCGAUAACGCCAACGUUCUCAACUAUGACACGCAAAACGCGUGCUCCGUUGAAUGGAGUGUAUCAUG [G92A U145G] | -2.54
11 | GGUUCUUCUCGAUCUAACAAAAAAGACAAAUCUGCCACAAAGCUUGAGAGCAUCUUCGGAUGCAGAGGCGGCAAGCUUCGGUGGCGCGAUUGCGCCAACGUUCUCAACUAUGACACGCAUAACGCGUGCUCUGUUGAAUGGAGUUUAUCAUG [A3U G74A C75G A91U A120U C132U] | ≤ -4.2
12 | GGAUCUUAUCGAUCUAACAAAAAAGACAAAUCUGCCACAAAGCUUGAGAGCAUCUUCGGAUGCAGAGGCGGCAGCCUUCGGUGGCGCGAUAGCCCCAACGUUCUCAACUAUGACACGCAAAACGCGUGCUCCGUUGAAUGGAGUUUAUCAUG [C8A G94C] | -3.7
13 | GGAUAUUCUCGAUCUAACAAAAAAGACAAAUCUGCCACAAAGCUUGAGAGCAUCUUCCGGUGCAGAGGCGGCAGCCUUCGGUGGCGCGAUAACGCCAACGUUCUCAACUAUGACACGCAAUACGCGUGCUCCGUUGAAUGGAGUUUAUCAUG [C5A G58C A60G G92A A121U] | -1.56
14 | GGAUCUUCUCGAUCUAACAAAAAAGACAAAUCUGCCCCAAAUCUUGAGAGCAUCUUCAGAUGCAGAGGCGGCAGCCUUCGGUGGCGCGAUAGCGCAAACGUUCUCAACUAUGACACUCAAAACGCGUGCUCCGUUGAAUGGAGUUAAUCAUG [A37C G42U G58A C96A G117U U146A] | ≤ -4.2
15 | GGAUCUUCUCGAUCUAACAAAAAAGACAAAUCUGCCACAAAGCUUGAGAGCAUCUUCGUAUGCAGAGGCGGCAGCCUUCGGUGGCGAGAUAGCGCCUACGUUCUCAACUAUGACACGCAAAACGCGUGCUCCGUUGAAUGGAGUUUAUCAUG [G59U C87A A97U] | ≤ -4.2
16 | GGAUCUUCUCGAUCUAACAAAAAAGACAAAUCUGCCACAAAGCUUGAGAGCAUCUUCGCAUGCAGAGGCGGCAGCAUUCGGUGGGGCGAUAGCGCCAACGUUCUCAACUAUGACACGUAAAACGCGUGCUCCGUUGAAUGGAGUUUAUCAUG [G59C C76A C85G C118U] | -2.89
17 | GGAUCUUCUCGAUCUAACAAAAAAGACAAAUCUGCCACAAAGCUUGAGAGCAUCGUCGGAUGCAGAGGCGGCAGCCUUCGGUGGCGCUAUAGCACCAACGUUCUCAACUAUGACACGCAAAACAGAUGCUCCGUUGAAUGGUGUUUAUCAUG [U55G G88U G94A G124A C125G G126A A142U] | ≤ -4.2
18 | GGAUCUUCUCGAUCUAACAAAAAAGACAAAUCUGCCACAAAGCUUGAGAGCAUCUUCGGAUGCAGAGGCGGCAGCAUUCGGUGGCGCGAUAGCGCCAACGUUCUCAACUAUGACACGCAAAACGCGUGCUCCGUUGAAUGCAGUUUAUCAUG [C76A G141C] | -2.39
19 | GGAUCUUCUUGAUCUAACAAAAAAGACAAAUCUGCCACAAAGCUUGAGAGCAUCUUCGGAUGCAGAGGCGGCAGCCUUCGGUGGCGCGAGAGCGCCAACGUUCUCAACUAUGACAGGCAAAACGCGUGCUCCGUUGAAUGGAGUUUAUCAUG [C10U U90G C116G] | -3.83
